Measurements as given in patent publication US20120207721A1 (AARHUS UNIVERSITET, published 2012).

Biological target: T1, soluble insulin receptor (IR) (R&D systems, 28-956) (UniProt P06213 28-956)
T1 construct: extracellular domain; Bought protein, coupled to a CM5 chip by NHS/EDC; It may be the same product as m8; also called soluble IR; immobilized soluble insulin receptor
Assay: SPR (Biacore), soluble IR coupled to CM5 chip, soluble SorCS1 as analyte

- Kd: ~5 nM
B1: soluble full-length extracellular part of SorCS1 (receptor)
chain: SGADQEKAERGEGASRSPRGVLRDGGQQEPGTRERDPDKATRFRMEELRLTSTTFALTGDSAHNQAMVHWSGHNSSVILILTKLYDYNLGSITESSLWRSTDYGTTYEKLNDKVGLKTILSYLYVCPTNKRKIMLLTDPEIESSLLISSDEGATYQKYRLNFYIQSLLFHPKQEDWILAYSQDQKLYSSAEFGRRWQLIQEGVVPNRFYWSVMGSNKEPDLVHLEARTVDGHSHYLTCRMQNCTEANRNQPFPGYIDPDSLIVQDHYVFVQLTSGGRPHYYVSYRRNAFAQMKLPKYALPKDMHVISTDENQVFAAVQEWNQNDTYNLYISDTRGVYFTLALENVQSSRGPEGNIMIDLYEVAGIKGMFLANKKIDNQVKTFITYNKGRDWRLLQAPDTDLRGDPVHCLLPYCSLHLHLKVSENPYTSGIIASKDTAPSIIVASGNIGSELSDTDISMFVSSDAGNTWRQIFEEEHSVLYLDQGGVLVAMKHTSLPIRHLWLSFDEGRSWSKYSFTSIPLFVDGVLGEPGEETLIMTVFGHFSHRSEWQLVKVDYKSIFDRRCAEEDYRPWQLHSQGEACIMGAKRIYKKRKSERKCMQGKYAGAMESEPCVCTEADFDCDYGYERHSNGQCLPAFWFNPSSLSKDCSLGQSYLNSTGYRKVVSNNCTDGVREQYTAKPQKCPGKAPRGLRIVTADGKLTAEQGHNVTLMVQLEEGDVQRTLIQVDFGDGIAVSYVNLSSMEDGIKHVYQNVGIFRVTVQVDNSLGSDSAVLYLHVTCPLEHVHLSLPFVTTKNKEVNATAVLWPSQVGTLTYVWWYGNNTEPLITLEGSISFRFTSEGMNTITVQVSAGNAILQDTKTIAVYEEFRSLRLSFSPNLDDYNPDIPEWRRDIGRVIKKSLVEATGVPGQHILVAVLPGLPTTAELFVLPYQDPAGENKRSTDDLEQISELLIHTLNQNSVHFELKPGVRVLVHAAHLTAAPLVDLTPTHSG
